Assay results published in publication PMC2845979 (Nature, 2009).

Target: the molecule itself
Assay: crystal structure

B1: minimal functional chicken ASIC1 construct (cASIC1mfc) (domain or fragment, UniProt Q1XA76 2-466, looked up)
chain: MDLKVDEEEVDSGQPVSIQAFASSSTLHGISHIFSYERLSLKRVVWALCFMGSLALLALVCTNRIQYYFLYPHVTKLDEVAATRLTFPAVTFCNLNEFRFSRVTKNDLYHAGELLALLNNRYEIPDTQTADEKQLEILQDKANFRNFKPKPFNMLEFYDRAGHDIREMLLSCFFRGEQCSPEDFKVVFTRYGKCYTFNAGQDGKPRLITMKGGTGNGLEIMLDIQQDEYLPVWGETDETSFEAGIKVQIHSQDEPPLIDQLGFGVAPGFQTFVSCQEQRLIYLPPPWGDCKATTGDSEFYDTYSITACRIDCETRYLVENCNCRMVHMPGDAPYCTPEQYKECADPALDFLVEKDNEYCVCEMPCNVTRYGKELSMVKIPSKASAKYLAKKYNKSEQYIGENILVLDIFFEALNYETIEQKKAYEVAGLLGDIGGQMGLFIGASILTVLELFDYAYEVIKHRLCR
stoichiometry N: 3
